Assay results: paper PMC11102226, “Three-dimensional DNA nanomachine biosensor coupled with CRISPR Cas12a cascade amplification for ultrasensitive detection of carcinoembryonic antigen”

Target: carcinoembryonic antigen (CEA) (UniProt P06731 35-685)
Assay: agarose gel (displacement of Walker strand from aptamer-Walker duplex); 10 ng/mL CEA; DNA 10 uM; aptamer pre-hybridised to Walker; aptamer-Walker duplex formed in 1x PBS (0.01 M, pH 7.4) at 37 C for 1 h; sensor with 10 mM Mn2+; gel binding buffer not given in the available material
Conditions: protein displaces Walker

carcinoembryonic antigen (CEA), sequence (P06731 35-685): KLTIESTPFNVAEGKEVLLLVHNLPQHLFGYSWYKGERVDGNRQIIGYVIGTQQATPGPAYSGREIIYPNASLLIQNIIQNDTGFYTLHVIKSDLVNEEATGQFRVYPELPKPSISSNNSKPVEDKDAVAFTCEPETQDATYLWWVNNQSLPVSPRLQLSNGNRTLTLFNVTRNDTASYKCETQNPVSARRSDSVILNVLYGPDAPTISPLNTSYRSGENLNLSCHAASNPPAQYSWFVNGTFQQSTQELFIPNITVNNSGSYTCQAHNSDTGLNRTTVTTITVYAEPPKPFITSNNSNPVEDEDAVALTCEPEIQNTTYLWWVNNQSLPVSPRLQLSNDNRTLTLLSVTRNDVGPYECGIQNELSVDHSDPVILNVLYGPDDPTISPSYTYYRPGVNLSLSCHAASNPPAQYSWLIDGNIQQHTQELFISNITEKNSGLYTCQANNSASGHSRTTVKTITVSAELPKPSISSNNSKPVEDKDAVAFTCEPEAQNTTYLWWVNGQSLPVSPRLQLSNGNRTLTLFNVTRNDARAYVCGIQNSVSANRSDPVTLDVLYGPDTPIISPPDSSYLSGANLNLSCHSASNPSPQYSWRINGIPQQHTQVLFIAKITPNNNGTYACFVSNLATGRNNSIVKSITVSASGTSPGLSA

ATACCAGCTTATTCAATT (ssDNA) [CEA aptamer]: binds.
